Measured values reported in the DeepSol protein solubility set.

assay: soluble on expression in E. coli; label from the status in PepcDB or PDB records

| Sequence | soluble on expression in E. coli |
| --- | --- |
| VAERFVVTGGNRLSGEVAVGGAKNSVLKLMAATLLAEGTSTITNCPDILDVPLMAEVLRGLGATVELDGDVARITAPDEPKYDADFAAVRQFRASVCVLGPLVGRCKRARVALPGGDAIGSRPLDMHQAGLRQLGAHCNIEHGCVVARAETLRGAEIQLEFPSVGATENILMAAVVAEGVTTIHNAAREPDVVDLCTMLNQMGAQVEGAGSPTMTITGVPRLHPTEHRVIGDRIVAATWGIAAAMTRGDISVAGVDPAHLQLVLHKLHDAGATVTQTDASFRVTQYERPKAVNVATLPFPGFPTDLQPMAIALASIADGTSMITENVFEARFRFVEEMIRLGADARTDGHHAVVRGLPQLSSAPVWCSDIRAGAGLVLAGLVADGDTEVHDVFHIDRGYPLFVENLVSLGAEIERVCC | not soluble |
| VAIRNFDISKISGEWYSIFLASDVKEKIEENGSMRVFVDVIRALDNSSLYAEYQTKVNGECTEFPMVFDKTEEDGVYSLNYDGYNVFRISEFENDEHIILYLVNFDKDRPFQLFEFYAREPDVSPEIKEEFVKIVQKRGIVKENIIDLTKIDRCFQLRG | soluble |
| VALSADIVGMHYRYPDHYEVEREKIREYAVAVQNDDAWYFEEDGAAELGYKGLLAPLTFICVFGYKAQAAFFKHANIATAEAQIVQVDQVLKFEKPIVAGDKLYCDVYVDSVREAHGTQIIVTKNIVTNEEGDLVQETYTTLAGRAGEDGEGFSDGAA | soluble |
| VARSSKLLGWCQRQTDGYAGVNVTDLTMSWKSGLALCAIIHRYRPDLIDFDSLDEQNVEKNNQLAFDIAEKELGISPIMTGKEMASVGEPDKLSMVMYLTQFYEMFKD | soluble |
| VASGYGGIRVGGPYFDDLSKGQVFDWAPGVTLSLGLAAAHQSIVGNRLRLALDSDLCAAVTGMPGPLAHPGLVCDVAIGQSTLATQRVKANLFYRGLRFHRFPAVGDTLYTRTEVVGLRANSPKPGRAPTGLAGLRMTTIDRTDRLVLDFYRCAMLPASPDWKPGAVPGDDLSRIGADAPAPAADPTAHWDGAVFRKRVPGPHFDAGIAGAVLHSTADLVSGAPELARLTLNIAATHHDWRVSGRRLVYGGHTIGLALAQATRLLPNLATVLDWESCDHTAPVHEGDTLYSELHIESAQAHADGGVLGLRSLVYAVSDSASEPDRQVLDWRFSALQF | soluble |
| VDNDKLKDGYVNFINILNLDDMYVKKMREWRNQDFVRQRMFNREIITEEEHARFIEHLKDNREKNYYVCFLGNKPFGVLYYEFFRKNNNLEFGYYLTEQEFINSGLGIVMEYSLLNHAFYDLKVNKVFCRTLSSNEKVVSLHMNFGFETEGILRQHVRINDGYEDITIQAINERAWAQNRPKIEKYLRVIVDVDKIGPITGRS | soluble |
| VDSVFIVGHRKLDMDALGASVGMQFFASNIVNASYVVYDPNDMNSDIERAIDYLQEDGETRLVSVERAFELITQNSLLVMVDHSKTALTLSKEFFNKFADVIVVDHHRRDEDFPKNAVLSFIESGASSASELVTELIQFQQAKDKLSRSQASILMAGIMLDTRNFASNVTSRTFDVASYLRGLGSNSMAIQKISATDF | not soluble |
| VFPSSVYVPDEWEVSREKITLLRELGQGSFGMVYEGNARDIIKGEAETRVAVKTVNESASLRERIEFLNEASVMKGFTCHHVVRLLGVVSKGQPTLVVMELMAHGDLKSYLRSLRPEAENNPGRPPPTLQEMIQMAAEIADGMAYLNAKKFVHRDLAARNCMVAHDFTVKIGDFGMTRDIYETDYYRKGGKGLLPVRWMAPESLKDGVFTTSSDMWSFGVVLWEITSLAEQPYQGLSNEQVLKFVMDGGYLDQPDNCPERVTDLMRMCWQFNPNMRPTFLEIVNLLKDDLHPSFPEVSFFHSEENK | soluble |
| VGAIMLDGKATRDEIFGDLKQRVAALDAAGRTPGLGTILVGDDPGSQAYVRGKHADCAKVGITSIRRDLPADISTATLNETIDELNANPDCTGYIVQLPLPKHLDENAALERVDPAKDADGLHPTNLGRLVLGTPAPLPCTPRGIVHLLRRYDISIAGAHVVVIGRGVTVGRPLGLLLTRRSENATVTLCHTGTRDLPALTRQADIVVAAVGVAHLLTADMVRPGAAVIDVGVSRTDDGLVGDVHPDVWELAGHVSPNPGGVGPLTRAFLLTNVVELAERR | soluble |
| VGEVNLSARGNFTFARNEILEYDQVPQVYPWLEKKGTRLNSWKLYIADGLYTADDFNITGEGLNRQYELKPGVVSGLSSGVRPGDIKYKDLNGDGKIDSNDQMEDVGNPSVPEIVYGFGLNAEWKGAYVGIFFQGSGNTSTVLGASSNGAFFPFQWGVEESAVRSEVANRWTEQNPSQNVMFPRMHSTNYDNNTAASTWWLRNASFLRLKNIEVGYNFKEKTLKKIGIQALRVYLQGNNLCVWDDIKMWDPELGNTNGGFSYPLSRTFTFGLDFTF | not soluble |
| VGKTVKREYCHEENDEELRKAVHDACYDKSYAIAASGNRNKHERQDAFDAIRDEFKAQFSEEELEEKGALIDRYYHDVEKEAMRRCILDEGKRLDGRKTTEIRP | not soluble |
| VINESEKEMIDSIFEFDDRIAEEVMTPRTEVYLINIDTPLNKYVDELLEIKYSRVPVFEGDSDNIIGILYIKDFIVEARKVGFENVNIKNIIHSPYFVPERKNINELFKELQAAKKHMAVLIDEYGGFSGIVTIEDLIEEVMGNISDE | soluble |
| VKPPHGFQKKMKLEVVDKRNPMFIRVATVADTDDHRVKVHFDGWNNCYDYWIDADSPDIHPVGWCSKTGHPLQPPLSPLELMEASEHGGCSTPG | soluble |
| VPDSSTALRILVYSDNVQTRERVMRALGKRLHPDLPDLTYVEVATGPMVIRQMDRGGIDLAILDGEATPTGGMGIAKQLKDELASCPPILVLTGRPDDTWLASWSRAEAAVPHPVDPIVLGRTVLSLLRAPAH | soluble |
| VPGPEYKVAILTVSDTVSAGAGPDRSGPRAVSVVDSSSEKLGGAKVVATAVVPDEVERIKDILQKWSDVDEMDLILTLGGTGFTPRDVTPEATKKVIERETPGLLFVMMQESLKITPFAMLARSAAGIRGSTLIINMPGNPNAVAECMEALLPALKHALKQIKGDKR | soluble |
| VPYKGYLIDLDGTIYQGKNRIPAGERFIKRLQERGIPYLLVTNNTTRTPEMVQSMLANQFHVETSIETIYTATMATVDYMNDMNRGKTAYVIGETGLKSAIAAAGYVEELENPAYVVVGLDSQVTYEMLAIATLAIQKGALFIGTNPDLNIPTERGLMPGAGALNALLEAATRVKPVFIGKPNAIIMNKSLEVLGIQRSEAVMVGDNYLTDIMAGIQNDIATILVTTGFTRPEEVPTLPIQPDHVLSSLDEWRL | soluble |
| VQREDGSWLLDGLIAVPELKDTLGLRAVPEEEKGVYHTLSGMIMWLLGRLPQTGDITFWENWRLEVIDMDSKRIDKVLATKIDNQPTEDPKPVA | soluble |
| VRALLAQNRLVTLCGTGGVGKTRLAIQIASASELRDGLCFVDLAPITESGIVAATAARAVGLPDQPGRSTMDSLRRFIGNRRMLMVLDNCEHLLDACAALVVELLGACPELTILATSREPIGMAGEITWRVPSMSITDEAVELFADRASRVQPGFTIANHNAAAVGEICRRLDGIPLAIEFAAARVRSMSPLEIADGLDDCFRLLAGGVRGAVQRQQTLRASIDWSHALLTETEQILFRRLAPFVGGFDLAAVRAVAAGSDLDPFSVLDQLTLLVDKSLVVADDCQGRTRYRLLETVRRYALEKLGDSGEADVHARHRDYYTALAASLNTPADNDHQRLVARAETEIDNLRAAFAWSRENGHITEALQLASSLQPIWFGRAHLREGLSWFNSILEDQRFHRLAVSTAVRARALADKAMLSTWLATSPVGATDIIAPAQQALAMAREVGDPAALVRALTACGCSSGYNAEAAAPYFAEATDLARAIDDKWTLCQILYWRGVGTCISGDPNALRAAAEECRDLADTIGDRFVSRHCSLWLSLAQMWAGNLTEALELSREITAEAEASNDVPTKVLGLYTQAQVLAYCGASAAHAIAGACIAAATELGGVYQGIGYAAMTYAALAAGDVTAALEASDAARPILRAQPDQVTMHQVLMAQLALAGGDAIAARQFANDAVDATNGWHRMVALTIRARVATARGEPELARDDAHAALACGAELHIYQGMPDAMELLAGLAGEVGSHSEGVRLLGAAAALRQQTRQVRFKIWDAGYQASVTALREAMGDEDFDRAWAEGAALSTDEAIAYAQRGRGERKRPARGWGSLTPTERDVVRLVSEGLSNKDIAKRLFVSPRTVQTHLTHVYAKLGLPSRVQLVDEAARRGSPS | not soluble |
